Laboratory results from patent US20150307621A1 (Kyowa Kirin, published 2015).

T1: human CD98 (human, UniProt P08195 2-529)
T1 construct: also called hCD98; 4F2
T1 sequence: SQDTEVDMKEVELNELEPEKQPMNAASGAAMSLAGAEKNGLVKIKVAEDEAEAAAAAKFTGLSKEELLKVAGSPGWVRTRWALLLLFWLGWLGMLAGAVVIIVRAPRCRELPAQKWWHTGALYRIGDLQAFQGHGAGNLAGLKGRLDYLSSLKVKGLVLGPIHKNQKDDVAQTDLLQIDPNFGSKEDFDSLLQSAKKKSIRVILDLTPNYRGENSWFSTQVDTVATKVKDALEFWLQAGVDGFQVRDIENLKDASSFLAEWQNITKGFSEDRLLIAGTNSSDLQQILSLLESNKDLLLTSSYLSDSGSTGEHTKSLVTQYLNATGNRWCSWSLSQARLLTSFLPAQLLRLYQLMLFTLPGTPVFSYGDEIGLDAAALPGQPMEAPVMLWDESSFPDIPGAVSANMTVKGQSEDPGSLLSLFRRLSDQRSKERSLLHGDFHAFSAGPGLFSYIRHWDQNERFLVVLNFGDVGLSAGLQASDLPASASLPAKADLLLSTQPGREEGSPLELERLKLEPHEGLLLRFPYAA

T2: mouse CD98 (mouse, UniProt P10852 1-526, limits assumed)
T2 construct: also called mCD98
T2 sequence (looked up): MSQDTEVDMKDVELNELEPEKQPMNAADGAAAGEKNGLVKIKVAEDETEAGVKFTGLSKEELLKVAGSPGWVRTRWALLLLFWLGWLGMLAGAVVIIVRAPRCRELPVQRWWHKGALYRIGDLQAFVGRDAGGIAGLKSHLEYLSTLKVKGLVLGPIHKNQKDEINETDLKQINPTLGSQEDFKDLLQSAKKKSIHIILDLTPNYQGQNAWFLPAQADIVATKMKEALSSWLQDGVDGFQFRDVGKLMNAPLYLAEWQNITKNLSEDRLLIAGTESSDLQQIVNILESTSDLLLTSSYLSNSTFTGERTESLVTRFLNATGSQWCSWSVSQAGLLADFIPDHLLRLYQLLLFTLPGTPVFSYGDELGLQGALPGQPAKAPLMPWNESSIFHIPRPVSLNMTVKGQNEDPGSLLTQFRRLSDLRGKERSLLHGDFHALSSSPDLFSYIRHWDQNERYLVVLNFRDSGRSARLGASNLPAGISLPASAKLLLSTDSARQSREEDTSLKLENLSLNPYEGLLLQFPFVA

T3: CD98 on human peripheral blood monocytes, PHA-activated T cells and activated B cells (human, UniProt P08195 2-529)
T3 sequence: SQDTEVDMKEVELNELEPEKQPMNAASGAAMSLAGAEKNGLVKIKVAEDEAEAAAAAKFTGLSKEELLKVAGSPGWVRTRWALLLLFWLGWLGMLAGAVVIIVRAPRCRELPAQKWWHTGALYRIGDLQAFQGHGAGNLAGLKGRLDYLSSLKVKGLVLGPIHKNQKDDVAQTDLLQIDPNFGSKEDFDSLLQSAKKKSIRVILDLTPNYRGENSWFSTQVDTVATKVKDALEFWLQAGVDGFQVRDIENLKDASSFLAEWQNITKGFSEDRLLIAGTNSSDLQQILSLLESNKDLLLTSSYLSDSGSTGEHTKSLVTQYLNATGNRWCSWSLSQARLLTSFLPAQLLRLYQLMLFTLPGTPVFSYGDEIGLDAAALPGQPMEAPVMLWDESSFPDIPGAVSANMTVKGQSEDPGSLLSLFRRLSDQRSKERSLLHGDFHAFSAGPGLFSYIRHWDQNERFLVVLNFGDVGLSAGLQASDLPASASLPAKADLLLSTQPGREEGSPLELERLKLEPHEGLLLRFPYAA

T4: CD98 on normal human aortic endothelial cells (HAEC) (human, UniProt P08195 2-529)
T4 sequence: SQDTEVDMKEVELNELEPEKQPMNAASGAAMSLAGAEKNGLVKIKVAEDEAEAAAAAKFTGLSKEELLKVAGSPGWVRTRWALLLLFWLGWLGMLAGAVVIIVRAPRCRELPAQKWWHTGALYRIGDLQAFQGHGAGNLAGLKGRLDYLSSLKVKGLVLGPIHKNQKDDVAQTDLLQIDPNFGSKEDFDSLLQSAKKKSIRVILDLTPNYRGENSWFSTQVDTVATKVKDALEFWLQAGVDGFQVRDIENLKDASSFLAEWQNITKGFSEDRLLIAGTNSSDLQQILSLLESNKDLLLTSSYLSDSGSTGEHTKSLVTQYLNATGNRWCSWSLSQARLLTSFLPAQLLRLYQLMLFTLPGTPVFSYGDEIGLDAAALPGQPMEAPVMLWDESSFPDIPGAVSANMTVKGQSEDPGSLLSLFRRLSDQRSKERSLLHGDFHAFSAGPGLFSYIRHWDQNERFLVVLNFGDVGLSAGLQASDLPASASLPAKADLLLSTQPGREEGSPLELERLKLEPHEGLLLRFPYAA


What was measured:
[1] = molecular target: T5, human LAT1-EGFP on L929 cells (human, UniProt Q01650 1-507); assay: FACS on hLAT1-E-expressing L929 cells
T5 construct: L929 cells transfected with pEF1/hLAT1-EGFP alone; also called hLAT1-E; hLAT1-EGFP; not shown: EGFP and the short vector-encoded linker (pEGFP-N1) at the C terminus of hLAT1

human CD98 = molecular target: T1, human CD98; assay: FACS, antibody 5 µg/mL, hCD98-expressing L929 cells
mouse CD98 = molecular target: T2, mouse CD98; assay: not described at this place
[2] = molecular target: T3, CD98 on human peripheral blood …; assay: FACS with FITC-labeled antibody 5 µg/mL on human peripheral blood cells
[3] = molecular target: T4, CD98 on normal human aortic endothelial …; assay: FACS on cultured HAEC, antibody 3.2 ng/mL to 50 µg/mL
[4] = molecular target: T6, human CD98/human LAT1-EGFP complex on transfected CT26 or L929 cells (human, UniProt P08195 1-529; Q01650 1-507, CD98 and LAT1 are linked by a disulfide bond on the cell membrane); assay: FACS, antibody 5 µg/mL, transfected CT26 or L929 cells
T6 construct: also called hCD98/hLAT1-E; hCD98/hLAT1; not shown: EGFP and the short vector-encoded linker (pEGFP-N1) fused to the intracellular C terminus of hLAT1
T6 sequence (Q01650 whole entry, the tested form may be a part, one chain of several): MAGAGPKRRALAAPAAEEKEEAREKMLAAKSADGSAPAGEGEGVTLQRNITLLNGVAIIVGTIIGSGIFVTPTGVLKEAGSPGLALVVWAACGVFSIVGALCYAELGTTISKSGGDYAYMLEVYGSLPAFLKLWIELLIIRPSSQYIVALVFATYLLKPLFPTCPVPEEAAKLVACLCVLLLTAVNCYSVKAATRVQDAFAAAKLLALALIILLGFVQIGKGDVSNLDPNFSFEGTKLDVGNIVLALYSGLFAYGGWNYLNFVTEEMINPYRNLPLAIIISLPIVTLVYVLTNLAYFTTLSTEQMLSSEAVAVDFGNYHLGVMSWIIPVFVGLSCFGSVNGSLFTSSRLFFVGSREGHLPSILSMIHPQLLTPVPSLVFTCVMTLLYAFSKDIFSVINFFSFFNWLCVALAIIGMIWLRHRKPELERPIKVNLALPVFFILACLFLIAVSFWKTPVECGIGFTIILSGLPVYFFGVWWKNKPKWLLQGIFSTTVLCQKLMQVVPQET

T5 sequence (Q01650 whole entry): as the sequence (Q01650 whole entry, the tested form may be a part, one chain of several) above

| Binder | binding result [1] | binding result (human CD98) | binding result (mouse CD98) | binding result [2] | binding result [3] | binding result [4] |
| --- | --- | --- | --- | --- | --- | --- |
| human anti-CD98 monoclonal antibody K3 (antibody, V domains shown, Recombinant human IgG1/kappa (variable regions put into the N5KG1-Val Lark vector); The entries begin with the leader peptide; FITC-labelled in some assays; also called 4-32-9; K3IgG1) VH: EVQLVQSGAEVKKPGESLKISCKGSGYRFTDYWIGWVRQMPGKGLEWMGIFYPGDSDARYSPSFQGQVTISADKSINTAYLQWSSLKASDTAMYYCARRRDIVGGTDYWGQGTLVTVSS VL: EIVLTQSPATLSLSPGERATLSCRASQSVSSYLDWYQQKPGQAPRLLIYDASSRATGIPARFSGSGSGTDFTLTISSLEPEDFAVYYCQQRSNWITFGQGTRLEIK | no binding (tested: 5 µg/mL) | binds | no binding | binds | binds | binds |
| human anti-CD98 monoclonal antibody 1-40-1 (antibody, V domains shown, Recombinant human IgG1/kappa (N5KG1-Val Lark vector); Entries begin with the leader peptide; also called 1-40-1IgG1) VH: EVQLVESGGGVVRPGGSLRLSCAASGFTFDDYGMTWVRQAPGKGLEWVSTISWNGGGTGYADSVKGRFTISRDNAKNSLYLQMNSLRAEDTALYYCAGYCIITGCYADYWGQGTLVTVSS VL: EIVLTQSPATLSLSPGERATLSCRASQSVSSYLAWYQQKPGQAPRLLIYDASNRATGIPARFSGSGSGTDFTLTISSLEPEDFAVYYCQQRSNWWTFGQGTKVEIK | no binding (tested: 5 µg/mL) | binds | no binding | binds | binds | binds |
| human anti-CD98 monoclonal antibody C2IgG1 (antibody, V domains shown, Recombinant IgG1/kappa form of the C2 hybridoma antibody (hybridoma C2 is IgM); The entries begin with residues translated from the cloning site (STT, RSLT) and the leader peptide; also called 4-35-14) VH: QLQLQESGPGLVKPSETLSLTCTVSGGSISSSSYYWGWIRQPPGKGLEWIGSIYYSGSTYYNPSLKSRVTISVDTSKSQFFLKLSSVTAADTAVYYCARQGTGLALFDYWGQGTLVTVSS VL: not shown | no binding (tested: 5 µg/mL) | – | no binding | – | – | – |
| human anti-CD98 monoclonal antibody 3-69-6 (antibody, V domains shown, Recombinant human IgG1/kappa (N5KG1-Val Lark vector); Entries begin with residues translated from the cloning site (RRPT, RSLT) and the leader peptide; also called 3-69-6IgG1) VH: QVQLVQSGAEVKKPGASVKVSCKASGYTFTSYGISWMRQAPGQGLEWMGWISAYNGNTNYVQKFQDRVTMTRDTSTSTAYMELRSLRSDDTAVYYCARDRGSNWYGWFDPWGQGTLVTVSS VL: not shown | no binding (tested: 5 µg/mL) | – | no binding | – | – | – |
